Measurements from paper PMC12790879.

Biological target: RHT1‐GRAS (truncated DELLA protein containing only the C‐terminal GRAS domain) (wheat (Triticum turgidum ssp. durum, cultivar Kronos))
Test: two-hybrid; yeast-three-hybrid (Y3H), quantitative alpha-galactosidase activity; DELLA-GRAS as AD, SPL3 or SPL4 as BD, VRN1 or FUL2 expressed as third protein; Method S10

percent decrease of the DELLA-SPL3 interaction (m1 with m2) when expressed as third protein	percent decrease of the DELLA-SPL4 interaction (m1 with m3) when expressed as third protein	Substance
60%	55%	FUL2 expressed as the third protein in the yeast‐three‐hybrid system (natural protein)
48%	36%	VRN1 expressed as the third protein in the yeast‐three‐hybrid system (natural protein)
